{"source": "the DeepSol protein solubility set", "data": [{"assay": "soluble on expression in E. coli; label from the status in PepcDB or PDB records", "values": [{"sequence": "MKSDWSTDFFHQSQTPNPYPPIVQQQQQPPHTSSSFFNTNHQLNSHYSSPIHQPPTSLHQPIPMMQNQFKASPPQSDQETAPTTPGSGSGGQMKGERCVGCGSESAIRVHYGASSCHGCKAFFRRSVFEGRVYMCSADNHCDITNESRNRCRACRLRNCLEGGMNPKHVREERSKIERMPGNTCTVSAANGVSHSSSAASASPEHKFSFSLSTIAPSTSTGSFSSGSQPAPIESTNSSGSEAEVLDRKLIQENQLTLFMVALEKQTEQLTDDDVKDNDVMGAWSRDITLTFGLQHPQMVIKRLPLKYSCDRIMEAADLYLSWYRSFVFAADWAMGIPEFRVLPLADQTTLFKQNFMAFGWITFAYKCFELKQHLTGMPLGNGAYIPYNDEDQKKLPERWAQTYGVVCRKLIDLIVKAMIELQITEEEYCLIKTISLFQQDCILSEAGQGICSRMRDRLLDALSAHIEKRYPYHTTSQRMTRALKISLMLPSFSHIGQVESTLITQLTAADLHQLSGVPMEICTAQTTL", "soluble on expression in E. coli": "not soluble"}, {"sequence": "MKSHERGRVILVIDDTDCGRVAAERLVFMARAGFRGDVFVVFGKDIEISPIASYEKEMKIYTSLRVKASKFVEFYRERLEEAGLEVKQVKIILGNVSEEVLRLEKLLNPDLIVFGMEKRGFLKRLLRGDPYKEIIYETKAPVMVCKAGYERKDVDYEKIRCAKCVMG", "soluble on expression in E. coli": "not soluble"}, {"sequence": "MKSIYIILVNYNNFQDTIECVKSLRKIKNYHNYKVIIVDNDSKNDSVSKIKSFLQDCLLIESKKNLGFAGGNNLGIKYAMKHNADYVLLLNNDTVVENDFLDKLLEVHENYGNVGIVGGKIYYYYDKNRIWYAGGKINKFTGKTKHIGVNEIDEGQYNNISITGYVTGCMMLISKGAIEKCGVMDEKYFLYYEETDWNVRIKNAGFKIMYTPLSKIYHKVSSTTGKSDLIMSYYYDRNRYYFVFKNFNWVCKLSVTLYILVRLYAKLFKAIAINDVKRKHLIEYTIISIKNNIMGEIRV", "soluble on expression in E. coli": "not soluble"}, {"sequence": "MKSLDDLDFDNRFARLGGAFSTEVLPDPIAEPRLVVASPAALALLDLPAETSDEALFAELFGGHKLWSEAEPRAMVYSGHQFGSYNPRLGDGRGLLLGEVINQAGEHWDLHLKGAGQTPYSRMGDGRAVLRSSIREFLASEALPALGIPSSRALCVIGSSTPVWREKKESAATLLRLAPSHVRFGHFEYFYYTRQHDQLKQLAAFVLEHHFADCNAAERPYAAMFRQVVERNAELIARWQAYGFCHGVMNTDNMSILGITFDYGPYAFLDDFDANHICNHSDDAGRYSFSNQVPIAHWNLAALAQALTPLVEVDELRASLDLFLPLYQAHYLDLMRRRLGLGVAAENDHALVQELLQRMQGSAVDYSLFFRRLGEETPERALASLRDDFVDREAFDRWAEAYRRRVEEEGGDQESRRRRMHAVNPLYVLRNYLAQQAIEAAEQGDYTEVRLLHQVLSRPFEEQPGMERFTRRPPDWGRHLEISCSS", "soluble on expression in E. coli": "not soluble"}, {"sequence": "MKTALESLRNASALYNEKLVKLMKSFGMTIAEHRLLLLIESGLDTQEKISLATKLDTSTLSRQLKSAVRKELLDKLATGRDKRQLIYSVTEKGQSDLKGIAAELARIDANVFSDWNQNDRALLDQLLDKLEKSI", "soluble on expression in E. coli": "not soluble"}, {"sequence": "MKTGPLNESELEWLDDILTKYNTDHAILDVAELDGLLTAVLSSPQEIEPEQWLVAVWGGADYVPRWASEKEMTRFMNLAFQHMADTAERLNEFPEQFEPLFGLREVDGSELTIVEEWCFGYMRGVALSDWSTLPDSLKPALEAIALHGTEENFERVEKMSPEAFEESVDAIRLAALDLHAYWMAHPQEKAVQQPIKAEEKPGRNDPCPCGSGKKFKQCCLH", "soluble on expression in E. coli": "not soluble"}, {"sequence": "MKTIAIRDVTGIMEPLPGFSVVRTDGSDGQRSIKLNGYKTTNNQYGYQFVKNENTVVYDDEEYIIKTHRERTYRKGVGVEATAIHRIFDDLRNNYIYDEKTGTLRLDAMLSFALEGSGYTFEIDTTDLPASVRVENFGWNNSLALFRDILEKFGAEFDYKGKKIYVAKKFGIQRDEPFLRYRFNVKDPEKEIDTSSFATYIRGYGKKDDKGNYLFAEYTSPLAKIYGIKHADPVKDERYTDKDSLLAAMKKQLNDNIDISLTFTAIELESMGLRDIKKGDYVWCVIEPFDLNVQLRAVSREDYSDETKSPTFTFGTITKKASDIIASFNTTKKAVDKVIDTSTGKIKDSAIDTTGLTTKSEFQSHVDNKIVHITAEERAAWNAASNSIGDLTFITWSTPTLKNGWIQYTANTESYPIQYGKDAIGTVNIRGAVSSGVVGSSTPVFTLPAGFRPPFPHLFIGVSSVATDGTPQYFRGIIKTNGDVCIENISNKDTPNQFIGIYTQFKAI", "soluble on expression in E. coli": "soluble"}, {"sequence": "MKTINLSIFGLGNVGLNLLRIIRSFNEENRLGLKFNVVFVADSLHSYYNERIDIGKVISYKEKGSLDSLEYESISASEALARDFDIVVDATPASADGKKELAFYKETFENGKDVVTANKSGLANFWPEIMEYARSNNRRIRYEATVAGGVPLFSFIDYSVLPSRIKKFRGIVSLTINYFIRELANKREFDDVLSEATKLGIVEKNYKDDLTGLDAARKSVILCNHLYGSSYRLSDVFYEGILDQDRSFGKNERLVTETGIVNGKPSAESRIKSLDSNDYLLTLGKGSLGYQLQTDTNGTLNVSDLYDGPYETAGAVMNDLVILSMFTV", "soluble on expression in E. coli": "soluble"}, {"sequence": "MKTITLRPGQMTLADLRHIYQHPVHITLDESAYVPIQQSVDCVQAILAEQRTAYGINTGFGLLASTRIATEDLENLQRSIVLSHAAGVGEANDDAIVRLIMVLKINSLARGFSGIRLEVIQALITLVNAGVYPHIPLKGSVGASGDLAPLAHMSLLLLGEGKARYQGEWLPAHTALAQAGLQPLTLAAKEGLALLNGTQVSAAYALRGLFEAEDLYAAASVFGCLTVDAALGSRSPFDARIHAVRGQRGQIDAASTYRHLLGERSEISESHKNCDKVQDPYSLRCQPQVMGACLGQIRQAAEVLAIESNAVSDNPLVFAEQGDVLSGGNFHAEPVAMAADNLALALAEVGSLSECRISLMMDKHMSQLPPFLVENGGVNSGFMIAQVTAAALTSENKGLAFPASVDSIPTSANQEDHVSMAPRAGKRLWEMAENVRNILAIEWLAACQGLDLRKGLRTSAILEPARQLLRQHVTYYDKDRFFAPDIEVASQLIAQRHMNELMPAKLLPSL", "soluble on expression in E. coli": "not soluble"}, {"sequence": "MKTVMATGTFDIIHPGHGFFLEEARKLGGEDARLVVVLARDSTVRARKRTPIVGEKQRLEVVRMLKPVDEAYLGSETDMFEIVHRIKPDIIAIGPDQKFDVDELRDELRRRGLGCEVRRIEKYRDAELDSTCKIIKRIRSMEFDEDSLKNC", "soluble on expression in E. coli": "not soluble"}, {"sequence": "MKTYNIPVEATLEVIGGKWKVVILCHLKKDKKRTCELKQLMSGITQKMLTQQLRELEEDGVIERKVYNQVPPKVEYSLTDYGHSLDSILDTLCNWGENHLEKNGNTSMLITAAE", "soluble on expression in E. coli": "not soluble"}, {"sequence": "MKVAIIACQKMVEMGCPGKEACVSCFKAINEKSGAFERYKDVELVAFTTCGGCPGRRFPMRVKLLKTAAGAEAIHIANCTFLQPECPYINFDEICKKLMEELEIPIVFGTHTLVKKGEVVCTCGDNKE", "soluble on expression in E. coli": "not soluble"}, {"sequence": "MKVEKEFPLMNFSLRRLPLFILIKTRKQTIEMNLRKKGHGIFFSRFGVFISKKKNHINICTLLLTKHPYTKGFPRQNVVETILFRRNSKTHFGRPATRRRPLGEREVNPSARSLG", "soluble on expression in E. coli": "soluble"}, {"sequence": "MKVIAVNGGPRKQWNTATLLHKALEGAQSAGAETDLFHLYDLNYKGCISCFGCKRKNSSRIGHCVLKDELTPLLEEVLKCDALLLGSPIYFGNVTGAMRSFLERLFFSLLSYNEGQRTVFPRKVASGFIYTMNVPEDFLPQLEHHHHHH", "soluble on expression in E. coli": "soluble"}, {"sequence": "MKVIEVTHPIQSNQFITENVAMAFGFFDGMHRGHDKVFQVLDEKAKEHQLKKAVMTFDPHPSVVLNPERKRTTYLTPLSDKLEMIAEHGIDYCIVINFSSRFANVTSDDFIKNYIINNHVKEVIAGFDFTFGKFGKGNMTVLQESKAFNTTIVGKQEMDSEKISTTAIRQALTDGHLQKANDELGYIYRIKGTVVQGEKRGRTIGFPTANVQPSDDYVLPKKGVYAVSMEIGPESKLHRGVANVGVKPTFHDPTRAELVIEVNIFDFNENIYGERVTVYWHHFLRPEVKFDGIDPLVKQMNEDKAQAKHLLSIDFDDDISYNI", "soluble on expression in E. coli": "not soluble"}, {"sequence": "MKVLVSPMSVAEAIEAIEGGADIIDVKNPAEGSLGANFPWVIREISELAKKYGKEISATTGDMPYKPGTASLAALGAAVAGADYIKVGLYGVKNAEEAYEMMVGVVRAVKDFDSSKKVVAAGYGDYYRISSVSPLDLPEAVAKAGADIVMVDTAIKDGTSLFDHMKIGDIESFVKLARDNGLMVALAGNISWNHIETLKELSPDIIGVRSIVCEGDRSSMIKRELVVKLMEAVHG", "soluble on expression in E. coli": "not soluble"}]}]}
